Measured values reported in US6512097.

B1: C6-9L1 (scFv)
scFv: QVQLLQSGAELKKPGESLKISCKGSGYSFTSYWIAWVRQMPGKGLEYMGLIYPGDSDTKYSPSFQGQVTISVDKSVSTAYLQWSSLKPSDSAVYFCARHDVGYCSSSNCAKWPEYFQHWGQGTLVTVSSGGGGSGGGGSGGGGSQSVLTQPPSVSGAPGQWVTISCSGSSSNIGNNYVSWYQQLPGTAPKLLIYDNNKRPSGVPDRFSGSQSGTSASLAISGLRSEDEADYYCASWDYTLSGWVFGGGTKLTVLG
notes: C6L1 with the VL CDR3 of C6ML3-9
B2: C6-12L1 (scFv)
scFv: QVQLLQSGAELKKPGESLKISCKGSGYSFTSYWIAWVRQMPGKGLEYMGLIYPGDSDTKYSPSFQGQVTISVDKSVSTAYLQWSSLKPSDSAVYFCARHDVGYCSSSNCAKWPEYFQHWGQGTLVTVSSGGGGSGGGGSGGGGSQSVLTQPPSVSGAPGQWVTISCSGSSSNIGNNYVSWYQQLPGTAPKLLIYDNNKRPSGVPDRFSGSQSGTSASLAISGLRSEDEADYYCAAWDYSRSGWVFGGGTKLTVLG
notes: C6L1 with the VL CDR3 of C6ML3-12
B3: C6-B1D5 (scFv)
scFv: QVQLLQSGAELKKPGESLKISCKGSGYSFTSYWIAWVRQMPGKGLEYMGLIYPGDSDTKYSPSFQGQVTISVDKSVSTAYLQWSSLKPSDSAVYFCARHDVGYCTDRTCAKWPEWMQMWGQGTLVTVSSGGGGSGGGGSGGGGSQSVLTQPPSVSAAPGQKVTISCSGSSSNIGNNYVSWYQQLPGTAPKLLIYGHTNRPAGVPDRFSGSKSGTSASLAISGFRSEDEADYYCASWDYTLSGWVFGGGTKLTVLG
notes: Combined B1 and D5 mutations on C6ML3-9
B4: C6-B1D2 (scFv)
scFv: QVQLLQSGAELKKPGESLKISCKGSGYSFTSYWIAWVRQMPGKGLEYMGLIYPGDSDTKYSPSFQGQVTISVDKSVSTAYLQWSSLKPSDSAVYFCARHDVGYCTDRTCAKWPEWLGVWGQGTLVTVSSGGGGSGGGGSGGGGSQSVLTQPPSVSAAPGQKVTISCSGSSSNIGNNYVSWYQQLPGTAPKLLIYGHTNRPAGVPDRFSGSKSGTSASLAISGFRSEDEADYYCASWDYTLSGWVFGGGTKLTVLG
notes: Combined B1 and D2 mutations on C6ML3-9
B5: C6-B1D3 (scFv)
scFv: QVQLLQSGAELKKPGESLKISCKGSGYSFTSYWIAWVRQMPGKGLEYMGLIYPGDSDTKYSPSFQGQVTISVDKSVSTAYLQWSSLKPSDSAVYFCARHDVGYCTDRTCAKWPEWLDNWGQGTLVTVSSGGGGSGGGGSGGGGSQSVLTQPPSVSAAPGQKVTISCSGSSSNIGNNYVSWYQQLPGTAPKLLIYGHTNRPAGVPDRFSGSKSGTSASLAISGFRSEDEADYYCASWDYTLSGWVFGGGTKLTVLG
notes: Combined B1 and D3 mutations on C6ML3-9
B6: C6-B1D1 (scFv)
scFv: QVQLLQSGAELKKPGESLKISCKGSGYSFTSYWIAWVRQMPGKGLEYMGLIYPGDSDTKYSPSFQGQVTISVDKSVSTAYLQWSSLKPSDSAVYFCARHDVGYCTDRTCAKWPEWLHVWGQGTLVTVSSGGGGSGGGGSGGGGSQSVLTQPPSVSAAPGQKVTISCSGSSSNIGNNYVSWYQQLPGTAPKLLIYGHTNRPAGVPDRFSGSKSGTSASLAISGFRSEDEADYYCASWDYTLSGWVFGGGTKLTVLG
notes: Combined B and D library mutations on C6ML3-9

The binders below were run against T1, c-erbB-2 ECD with a Ser-Gly-His6 C-terminal fusion (UniProt P04626 23-652) (assay: SPR BIAcore).
T1 construct: extracellular domain; Expressed from CHO cells, IMAC purified; coupled to a CM5 chip, coated on plates, or biotinylated with NHS-LC-biotin; also called c-erbB-2 extracellular domain; biotinylated c-erbB-2 ECD
Procedure: All assays were performed in triplicate. Briefly, […] of radioiodinated sFv was added to 5×10^6 SK-OV cells in the presence of increasing concentrations of unlabeled sFv from the same preparation. After a 30 minute incubation at 20° C., the samples were washed with PBS at 4° C. and centrifuged at 500 g. The amount of labeled sFv bound to the cells was determined by counting the pellets in a gamma counter and the K_a, and K_d were calculated using the EBDA program (V 2.0, G. A. McPherson, 1983). The K_d of all the other isolated sFv were determined using surface plasmon resonance in a BIAcore (Pharmacia). In a BIAcore flow cell, approximately 1400 resonance units (RU) of c-erbB-2 ECD (25 μg/ml in 10 mM sodium acetate, pH 4.5) was coupled to a CM5 sensor chip (Johnsson et al. (1991), supra). Association and dissociation-rates were measured under continuous flow of […] using a concentration range from 50 to 800 nM. Rate constant $kon$ was determined from a plot of (1(dR/dt))/t vs concentration (Karlsson et al. (1991), supra). Rate constant $Hoff$ was determined from the dissociation part of the sensorgram at the highest concentration of sFv analyzed.
Mutants obtained by combining mutations of C6MH3-B1 or C6MH3-B47 with mutations from D library clones (D1, D2, D3, D5, D6). Rate constants $kon$ and $koff$ were measured by SPR in a BIAcore, and the K_d calculated.
With B1 the Kd was 0.33 nM, the “Kd (C6.5)/Kd (mut)” value was 49 and the “Kd (parent)/Kd (mut)” value was 3. The koff was 0.0003 s⁻¹ and the kon was 920000 M⁻¹ s⁻¹. In the case of B2, the Kd is reported as 0.19 nM, the “Kd (C6.5)/Kd (mut)” value is reported as 84 and the “Kd (parent)/Kd (mut)” value is reported as 8.4. It also gave a koff of 0.00013 s⁻¹ and a kon of 670000 M⁻¹ s⁻¹. With B3 the Kd was 0.035 nM, the “Kd (C6.5)/Kd (mut)” value was 457 and the “Kd (parent)/Kd (mut)” value was 3.4. The koff was 1.8e-05 s⁻¹ and the kon was 510000 M⁻¹ s⁻¹. B4 was tested, and the Kd was 0.015 nM, the “Kd (C6.5)/Kd (mut)” value was 1070 and the “Kd (parent)/Kd (mut)” value was 8. For the same binder, the koff was 1e-05 s⁻¹ and the kon was 690000 M⁻¹ s⁻¹. B5 was tested, and the Kd was 0.013 nM, the “Kd (C6.5)/Kd (mut)” value was 1230 and the “Kd (parent)/Kd (mut)” value was 9.2. It also gave a koff of 8e-06 s⁻¹ and a kon of 640000 M⁻¹ s⁻¹. For B6, the Kd was 0.032 nM, the “Kd (C6.5)/Kd (mut)” value was 500 and the “Kd (parent)/Kd (mut)” value was 3.8. The koff was 1.5e-05 s⁻¹ and the kon was 470000 M⁻¹ s⁻¹.
